Test [1] deals with T1, recombinant YFV E protein (soluble E, sE; YFV Asibi strain) (Yellow fever virus, Asibi strain, UniProt Q6DV88 286-678).
T1 construct: also called YFV E antigen; YFV E monomer
In words: BLI monovalent (IgG on tip).

Test [2] has as its target T2, recombinant YFV-17D DIII protein (Yellow fever virus, strain 17D, UniProt P03314 578-682).
T2 construct: also called domain III
T2 sequence: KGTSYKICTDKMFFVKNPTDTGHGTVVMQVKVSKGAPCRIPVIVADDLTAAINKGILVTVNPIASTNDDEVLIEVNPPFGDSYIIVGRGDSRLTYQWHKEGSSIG
Nature of the test: BLI, recombinant YFV-17D DIII protein. (In general: In BLI a coated tip is dipped into the sample, and binding shifts an interference pattern.)

T1 sequence (Q6DV88 286-678): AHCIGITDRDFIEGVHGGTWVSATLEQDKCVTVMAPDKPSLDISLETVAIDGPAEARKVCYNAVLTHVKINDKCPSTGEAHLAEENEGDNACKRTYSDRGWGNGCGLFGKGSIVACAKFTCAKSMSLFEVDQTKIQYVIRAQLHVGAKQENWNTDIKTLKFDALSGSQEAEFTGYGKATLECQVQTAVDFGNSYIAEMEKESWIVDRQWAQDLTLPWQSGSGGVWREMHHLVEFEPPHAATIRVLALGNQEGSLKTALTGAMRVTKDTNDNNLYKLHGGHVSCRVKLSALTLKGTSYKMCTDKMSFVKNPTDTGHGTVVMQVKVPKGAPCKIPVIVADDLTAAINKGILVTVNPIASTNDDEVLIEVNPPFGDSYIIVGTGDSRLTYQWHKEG

B1: ADI-42844 (antibody, V domains shown)
VH: QVQLVESGGGVVQPGRSLRLSCTASGFTFSSYGMHWVRQAPGKGPEWVAVISYDGSKKYFADSVKGRFTISRDNSKNTLYLQMNSLRAEDTAVYSCAKGYDSNGYYYIDYWGQGTPVTVSS
VL: DIRVTQSPSTLSASVGDRVTITCRASQSISSWLAWYQQKPGKAPKLLIYRASSLESGVPSRFSGSGSGTEFTLTISSLQPDDFATYYCQQYNRYPYTFGQGTKVEIK
notes: full-length IgG; also called Antibody Number 91
Broadly, the Kd is the equilibrium constant for the complex coming apart. B1: the Kd in test [1] stood at 137 nM.

B2: ADI-48910 (antibody, V domains shown)
VH: EVQLVQSGGGLVQRGGSLRLSCAASGFTFSSYAMTWVRQAPGKGLEWVSDMNHSGDRTNYADSVRGRFTISRDNSKNTLYLQMNSLRAEDTAVYYCAKYYDSSGYYYFHSWGQGTLVTVSS
VL: DIRLTQSPSTLSASVGDRVSITCRASQSISDWLAWYQQKPGKAPKLLIYRASGLETGVPSRFSGSGSGTEFTLTISSLQPDDFATYYCQQYNRYPYTFGQGTKVDIK
notes: full-length IgG; also called Antibody Number 94
For B2, the Kd in test [1] turned out to be 2.42 nM.

B3: ADI-45076 (antibody, V domains shown)
VH: EVQLVESGGGFVQPGGSLRLSCAASGFIFSDYYMDWVRQAPGKGLEWVGRIRNKPNSYTTEYAASVKGRFSISRDDLKNSLYLQMNSLKTEDTAEYYCARVDGEEVALIYWGQGALVTVSS
VL: DIQMTQSPSSLSASVGDRVTITCRASQTITRYMNWYQQKPGEAPKLLIYATSSLQSGVPSRFSGSGSGTDFTLTITNLQPADFATYYCQQSSTTRWTFGQGTKVDIK
notes: full-length IgG; also called Antibody Number 97
Turning to B3, the Kd in test [1] turned out to be 0.882 nM.

B4: ADI-42193 (antibody, V domains shown)
VH: EVQLLESGGGLVQPGGSLRLSCAASGFIFSDHYMAWVRQAPGKGLEWVGRSRNRPNSYTTEYAASAKGRFTISRDDSKTSLYLQMNSLKTEDTAVYYCAREHGDYGLDYWGQGTLVTVSS
VL: QPVLIQPPSASGTPGQRVTISCSGSSSNFGSNFVYWYQQLPGTAPKLLIYRVNQRPSGVPDRFSGSKSGTSASLAISGLRSEDEADYYCATWDVSLSNDVLFGGGTKLTVL
notes: full-length IgG; also called Antibody Number 95
Turning to B4, the Kd in test [1] turned out to be 0.922 nM.

B5: ADI-49590 (antibody, V domains shown)
VH: QVQLVQSGAEVKKPGASVKVSCKASGYTFTGYYMHWVRQAPGQGLEWMGRINPNSGGTNYAQKFQGRVTMTRDTSISTAYMELSRLRSDDTAVYYCYVDYYYDSSGYYSPFDYWGQGTLVTVSS
VL: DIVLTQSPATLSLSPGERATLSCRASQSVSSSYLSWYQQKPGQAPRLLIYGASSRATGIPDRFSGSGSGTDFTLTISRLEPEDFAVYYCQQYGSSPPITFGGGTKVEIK
notes: full-length IgG; also called Antibody Number 96
Take B5: the Kd in test [1] was 109 nM.

B6: ADI-42192 (antibody, V domains shown)
VH: EVQLLESGPGLVKPSQTLSLTCSVSGGSISSGGYYWTWIRQPPGKGLEWIGYIYYTGSTYYNPSLKSRVTISVDTSKNQFSLKLSSVTAADTAVYFCARAEYDTSGYYQQRLPEYFQHWGQGTLVTVSS
VL: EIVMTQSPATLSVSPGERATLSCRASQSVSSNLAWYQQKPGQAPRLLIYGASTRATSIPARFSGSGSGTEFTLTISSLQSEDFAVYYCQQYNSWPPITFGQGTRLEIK
notes: full-length IgG; also called Antibody Number 93
Regarding B6, the equilibrium dissociation constant (Kd) in test [1] came out at 204 nM.

B7: ADI-48968 (antibody, V domains shown)
VH: EVQLLESGGGLGQPGGSLRLSCVASKFTFSDHYMDWVRQAPGKGLEWVGRIRNKPNGYTTEYAASVKGRFIISRDDSKNSLYLQMKSLKIEDTAIYYCVRVWGGEAARYDYWGQGALVTVSS
VL: DIRLTQSPSSLSASVGDRVTITCRASQDIRKFLNWYQQKLGKAPSLLIYGASSLQSGVPSRFSGSGSGTDFTLTISSLQPEDFAIYYCQHASTTPWTFGQGTKVEIK
notes: full-length IgG; also called Antibody Number 98
On to B7, for which the Kd in test [1] came to 0.963 nM.

B8: ADI-45090 (antibody, V domains shown)
VH: EVQLVESGGGLVQPGRPLRLSCAASGFAFSSYGMHWVRQAPGKGLEWVALIRFDGTIKYYADSVKGRFTISRDNAKNTLYLQMSSLRAEDTAVYYCARDLEVGAEYLYYHYGMDVWGQGTTVTVSS
VL: QPVLTQPPSASGTPGQRVTIFCSGSRSNIGTYTINWYQKLPGTAPKLLIYSNNRGPSGVPDRFSGSQSGTSASLAISGLQPEDEADYYCAAWDDSLNGWVFGGGTKVTVL
notes: full-length IgG; also called Antibody Number 4
Consider B8, for which the Kd in test [1] is 2.11 nM. Moreover, the binding result in test [2] was “binds”.

B9: ADI-42213 (antibody, V domains shown)
VH: EVQLLESGGGLVQPGGSLRLSCAASGFTFTYYAMSWVRQAPGKGLEWVSGISGSGDSTYNADSVKGRVTISRDNSKNTLYLQMNSLRAEDTAVYYCAKDGGYSTDWYFDLWGRGTLVTVSS
VL: EIVLTQSPGTLSLSPGERATLSCRASQSVSSSFLAWYQQKPGQAPRLLIYGASSRATGIPDRFSGSGSGTDFTLTIRRLEPEDFAVYYCQQYGSSRRTFGQGTKVEIK
notes: full-length IgG; also called Antibody Number 90
Regarding B9, in test [1], the Kd was found to be 15.2 nM.

B10: ADI-49147 (antibody, V domains shown)
VH: QVQLQESGGDLVQPGGSLRLSCAASGFTFSNYAMNWVRQAPGKGLEWVSAINRGGDSTYYADSVKGRFTISRDNSKNTLYLQMNSLRAEDTAVYYCAKDHGGKYGWWYFDLWGRGTLVTVSS
VL: DIRVTQSPATLSVSPGERATLSCRASQSVSSNLAWYQQKPGQAPRLLIYDASNRATGIPVRFSGSGSGTDFTLTISSLQSEDFAVYYCQQYDNWPLTFGGGTKVEIK
notes: full-length IgG; also called Antibody Number 2
For B10, the Kd in test [1] worked out at 3.73 nM. The binding result in test [2] is listed as “binds”.

B11: ADI-49141 (antibody, V domains shown)
VH: EVQLQESGPGLVKPSGTLSLTCAVSGGSISSSNWWTWVRQPPGKGLEWIGEIYHSGSTNYNPSLESRVTMSVDKSKNQFSLKLSSVTAADTAVYYCARVQTSHSELWFGEFGADWGQGTLVTVSS
VL: DIVMTQSPATLSVSPGERATLSCRASQSVSSNLAWYQQKPGQAPRLLIYGASTRATGIPARFSGSGSGTEFTLTISSLQSEDFAVYSCQQYNTWPKTFGQGTKVEIK
notes: full-length IgG; also called Antibody Number 89
Turning to B11, the Kd in test [1] stood at 187 nM.

B12: ADI-45161 (antibody, V domains shown)
VH: QVQLQESGGGVVQPGRSLRLSCAASGFTFSSYGMHWVRQAPGKGLEWVAVIWYDGSNKYYADSVKGRFTISRDNSKNTLYLQMNSLRAEDTAVYYCARDVGYQLLQVYGMDVWGQGTTVTVSS
VL: QSALTQPASVSGSPGQSITISCTGTSSDVGGYNYVSWYQQHPGKAPKLMIYEVSNRPSGVSNRFSGSKSGNTASLTISGLQAEDEADYYCSSYTSSSTLDVVFGGGTKLTVL
notes: full-length IgG; also called Antibody Number 92
For B12, in test [1], the Kd is > 100 nM.

B13: ADI-42787 (antibody, V domains shown)
VH: EVQLVESGGGVVQSGRSLRLSCAASGFTFSGNAMHWVRQAPGKGLEWVAVILYDGSNQYYADSVKGRFTISRDNSKNTLYLQMNSLRPADTAVYYCARASMMPRPPVHDYWGQGTLVTVSS
VL: DIRVTQSPATLSVSPGERATLSCRASQRVNSNLAWYQQKPGQAPRLLIYGASTRATGIPVRFSGSGSGTEFTLTISSLQSEDFAVYYCQQYNTWWTFGQGTKVEIK
notes: full-length IgG; also called Antibody Number 87
For B13, in test [1], the Kd is 0.45 nM.

B14: ADI-45075 (antibody, V domains shown)
VH: EVQLLESGGGLVQPGGSLRLSCAASGFTFSSYAMSWVRQAPGKGLEWVSVISDSGGSTYYADSVKGRFTISRDNSKNTLYLQMNSLRAEDTAVYYCAKDLRGVGGWYYFDYWGQGTLVTVSS
VL: EIVLTQSPSSLSASVGDRVTITCQASQDISNFLNWYQQKPGKAPKLLIYDASSLETGVPSRFSGSGSGTDFTFTISSLQPEDIATYYCQQYDNLPLTFGGGTKLEIK
notes: full-length IgG; also called Antibody Number 45
For the molecule B14, the Kd in test [1] is 26.1 nM. The binding result in test [2] was “binds”.

B15: ADI-42212 (antibody, V domains shown)
VH: EVQLVESGGGLVQPGGSLRLSCAASGFTFSDHYMDWVRQAPGKGLEWVGRSRNKPNSYITEYAASVKGRFTISRDDSKNSLYLQMNSLKTEDTAVYYCSRHMGFGLDLWGQGTLVTVSS
VL: SYELTQPPSVSVSPGQTATITCSGDKLGYTYTCWYQQKPGQSPVLVIYQDTKRPSGIPERFSGSNSGNTATLTITGTQAMDEADYYCQAWDTTTAGGVFGGGTKLTVL
notes: full-length IgG; also called Antibody Number 99
As to B15, in test [1], the Kd is 0.884 nM.

B16: ADI-46742 (antibody, V domains shown)
VH: QVQLQESGPGLVKPSETLSLTCTVSGASIRSYLWSWIRQPPGKELEWLGSIYHSGSTKYNPSLKSRVTISADTSKNQFSLKLNSVTAADTAVFYCARETANNWFDPWGQGTLVTVSS
VL: SYELTQPPSVSVAPGQTARIICGGNYIGGKSVHWYQQKPGQAPVLVVYNDNDRPSGIPERFSGSNSGNTATLTISRVAAGDEADYYCQVWDNSSDRRVFGGGTKLTVL
notes: full-length IgG; also called Antibody Number 86
As to B16, the dissociation constant Kd in test [1] is > 100 nM.

B17: ADI-45113 (antibody, V domains shown)
VH: QVQLVQSGGGLVQPGGSLRLSCAASGFTFSSYAMSWVRQAPGKGLEWVSAISGSGGSTYYADSVKGRFTISRDNSKNTLHLQMSSLRAEDTAVYYCAKDPKYSSGWWAFDYWGQGTLVTVSS
VL: EIVMTQSPATLSVSPGERATLSCRASQSVSSNLAWYQQKPGQAPRLLIYGASTRATGIPARFSGSGSGTEFTLTISSLQSEDFALYYCQQYDDWPLFGQGTRLEIK
notes: full-length IgG; also called Antibody Number 20
On to B17, for which the Kd in test [1] was 253 nM. For the same molecule, in test [2], the binding result was “binds”.

B18: ADI-45083 (antibody, V domains shown)
VH: QVQLVESGPGLVKPSGTLSLTCAVSGGSISSDYWWSWVRQPPGKGLEYIGEIYHTGSTNYNPSLKSRVTVSLDRSKNVFSLTLRSVTAADTAVYYCARSHWRSPQSVTFDLWGQGTTVTVSS
VL: QPVLTQPPSVSAAPGQKVTISCSGSNSNIGNYYVSWYQQFPGTAPKLLIYDNNKRPSGIPDRFSGSKSGTSATLAITGLQTGDEAHYYCGTWDTSSLSAGRVFGGGTKLTVL
notes: full-length IgG; also called Antibody Number 9
As for B18, the Kd in test [1] was determined as 3.45 nM.

For the origin of these results see patent US20240218054A1 (MABLOC, published 2024).
